Assay results taken from the supplement of paper PMC10724198.

Key:
[1] = tested on: Saccharomyces cerevisiae; test: protein stability index of tFT-peptide fusion in wild type (PSI (0-1 scale)); higher = more stable (slower turnover); settings: genetic background: wild type
Procedure: (§1)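 MPS profiling in S. cerevisiae of two library types built from selected 12-aa C-degron peptides (IN1, IN2, LN1, LN3, VN2, R1-R5, W1-W3, Atg1 and Rpa12 C-termini): saturation mutagenesis libraries and C-terminal +1 capping libraries (13 aa). Each peptide is fused to the C-terminus of a sfGFP-mCherry timer, after a GGGS linker. Cells are FACS-sorted into 8 mCherry/sfGFP bins and sequenced. PSI runs from 0 (unstable) to 1 (stable), measured once in wild type and in the das1Δ or doa10Δ background.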

[2] = tested on: Saccharomyces cerevisiae; test: protein stability index of tFT-peptide fusion in deletion strain of DAS1 (PSI (0-1 scale)); higher = more stable (slower turnover)
Procedure: as §1
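Throughout, for protein stability index of tFT-peptide fusion in deletion strain of DAS1: PSI is a weighted mean of each variant's read distribution over the sorted stability bins, computed only for variants having over 10 reads in total.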
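Throughout, for protein stability index of tFT-peptide fusion in wild type: PSI derived as read-weighted mean over the 8 sorting bins, only variants exceeding 10 total reads kept, mCherry placed adjacent to the peptide and sfGFP distal.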

Row | Sequence | protein stability index [1] | protein stability index [2]
1 | LKILRAKMNHQN | 0.223 | 0.665
2 | LKILRQCMNHQN | 0.288 | 0.686
3 | LKILRQKCNHQN | 0.295 | 0.663
4 | LKILRQKINHQN | 0.23 | 0.668
5 | LKILRQKMKHQN | 0.568 | 0.687
6 | LKILRQKMLHQN | 0.227 | 0.643
7 | LKILRQKMNAQN | 0.208 | 0.671
8 | LKILRQKMNHQN | 0.192 | 0.674
9 | LKILRQKMNHQNK | 0.656 | 0.664
10 | LKILRQKMNHQNY | 0.595 | 0.705
11 | LKILRQKMNHQQ | 0.193 | 0.691
12 | LKILRQKMNKQN | 0.246 | 0.656
13 | LKILRQKMNRQN | 0.21 | 0.68
14 | LKILRQKMNVQN | 0.226 | 0.661
15 | LKILRQSMNHQN | 0.238 | 0.661
16 | LKILRRKMNHQN | 0.216 | 0.648
17 | LNVYLSCVACIN | 0.043 | 0.188
18 | LQILRQKMNHQN | 0.117 | 0.701
19 | LTVYLSCVACIN | 0.0165 | 0.0375
20 | LVVYHSCVACIN | 0.181 | 0.313
21 | LVVYLACVACIN | 0.0186 | 0.041
22 | LVVYLCCVACIN | 0.0154 | 0.0405
23 | LVVYLDCVACIN | 0.0395 | 0.119

Row | Sequence | protein stability index [1] | protein stability index [2]
24 | LVVYLSCQACIN | 0.00888 | 0.0148
25 | LVVYLSCVAAIN | 0.0144 | 0.0388
26 | LVVYLSCVACEN | 0.132 | 0.132
27 | LVVYLSCVACIE | 0.0121 | 0.0184
28 | LVVYLSCVACINF | 0.024 | 0.0394
29 | LVVYLSCVACINL | 0.0224 | 0.0337
30 | LVVYLSCVACPN | 0.0732 | 0.0988
31 | LVVYLSCVACRN | 0.0192 | 0.0464
32 | LVVYLSCVMCIN | 0.0111 | 0.0156
33 | LVVYLSCVPCIN | 0.237 | 0.305
34 | LYVYLSCVACIN | 0.0152 | 0.0144
35 | NKILRQKMNHQN | 0.113 | 0.701
36 | PDKFNHLIKLLN | 0.117 | 0.622
37 | PDKPNHLIKLLN | 0.199 | 0.607
38 | PDKRGHLIKLLN | 0.113 | 0.593
39 | PDKRHHLIKLLN | 0.113 | 0.705
40 | PDKRIHLIKLLN | 0.0865 | 0.589
41 | PDKRNCLIKLLN | 0.148 | 0.586
42 | PDKRNELIKLLN | 0.115 | 0.608
43 | PDKRNGLIKLLN | 0.222 | 0.614
44 | PDKRNHGIKLLN | 0.41 | 0.587
45 | PDKRNHLHKLLN | 0.265 | 0.59
46 | PDKRNHLIKHLN | 0.0778 | 0.601

Row | Sequence | protein stability index [1] | protein stability index [2]
47 | PDKRNHLIKLLD | 0.666 | 0.611
48 | PDKRNHLIKLLE | 0.579 | 0.606
49 | PDKRNHLIKLLNH | 0.142 | 0.669
50 | PDKRNHLIKLLNK | 0.655 | 0.67
51 | PDKRNHLIKLLNN | 0.137 | 0.666
52 | PDKRNHLIKLRN | 0.623 | 0.672
53 | PDKRNHLISLLN | 0.438 | 0.614
54 | PDKRNHLIWLLN | 0.0587 | 0.705
55 | PDKRNHLIYLLN | 0.0898 | 0.702
56 | PDKRNHMIKLLN | 0.0922 | 0.625
57 | PDKRNHNIKLLN | 0.172 | 0.602
58 | PDKRNHPIKLLN | 0.282 | 0.574
59 | PDKRNYLIKLLN | 0.119 | 0.601
60 | PDKRQHLIKLLN | 0.065 | 0.562
61 | PDKRWHLIKLLN | 0.0628 | 0.633
62 | PDPRNHLIKLLN | 0.15 | 0.582
63 | PDWRNHLIKLLN | 0.144 | 0.627
64 | PFKRNHLIKLLN | 0.0943 | 0.587
65 | PNKRNHLIKLLN | 0.0744 | 0.597
66 | PSFAASFWRVVG | 0.148 | 0.703
67 | PSLAAPFWRVVG | 0.182 | 0.696
68 | PSLAAQFWRVVG | 0.14 | 0.696
69 | PSLAASFNRVVG | 0.643 | 0.673

Row | Sequence | protein stability index [1] | protein stability index [2]
70 | PSLAASFWFVVG | 0.658 | 0.666
71 | PSLAASFWKVVG | 0.31 | 0.674
72 | PSLAASFWRIVG | 0.143 | 0.675
73 | PSLAASFWRQVG | 0.146 | 0.653
74 | PSLAASFWRTVG | 0.172 | 0.698
75 | PSLAASFWRVEG | 0.672 | 0.687
76 | PSLAASFWRVHG | 0.193 | 0.686
77 | PSLAASFWRVVGA | 0.545 | 0.681
78 | PSLAASFWRVVH | 0.448 | 0.695
79 | PSLAASFWRVVI | 0.263 | 0.716
80 | PSLAASFWRWVG | 0.145 | 0.706
81 | PSLAASFWSVVG | 0.694 | 0.709
82 | PSLAASFWWVVG | 0.582 | 0.718
83 | PSLAASYWRVVG | 0.157 | 0.672
84 | PSLAFSFWRVVG | 0.111 | 0.676
85 | PSLCASFWRVVG | 0.129 | 0.68
86 | PSLLASFWRVVG | 0.145 | 0.695
87 | PSMAASFWRVVG | 0.126 | 0.699
88 | PSQAASFWRVVG | 0.161 | 0.695
89 | PSYAASFWRVVG | 0.131 | 0.715
